# Results as given in patent publication US20230000950A1, “COMPOSITION COMPRISING GLUCAGON AND GLP-1 AND GIP RECEPTOR DUAL AGONIST AND THERAPEUTIC USE OF SAME” (HANMI PHARM. CO., LTD., priority 2019, published 2023).
# Positions of bridges follow the written chain, without caps; N, C: chain ends. Non-standard residues stand in square brackets, D forms with d. No end group written: not given here. Aib = CC(C)(N)C(=O)O
# Biological target: human glucagon receptor (human, UniProt P47871 26-477)
# Assay: cell-based or functional assay
# Sequence of human glucagon receptor (P47871 26-477): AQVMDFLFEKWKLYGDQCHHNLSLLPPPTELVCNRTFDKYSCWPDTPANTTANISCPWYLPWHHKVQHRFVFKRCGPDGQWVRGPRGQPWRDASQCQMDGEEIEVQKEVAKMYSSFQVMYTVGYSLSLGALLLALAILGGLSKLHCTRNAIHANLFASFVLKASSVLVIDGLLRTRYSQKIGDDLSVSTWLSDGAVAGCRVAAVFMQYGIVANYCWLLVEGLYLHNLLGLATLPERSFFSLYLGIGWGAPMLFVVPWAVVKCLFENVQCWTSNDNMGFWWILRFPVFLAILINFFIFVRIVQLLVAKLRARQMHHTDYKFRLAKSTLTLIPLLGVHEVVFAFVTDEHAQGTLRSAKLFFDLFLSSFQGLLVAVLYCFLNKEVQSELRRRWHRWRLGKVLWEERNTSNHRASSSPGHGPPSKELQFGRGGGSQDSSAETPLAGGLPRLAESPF
row,"In vitro activity (relative activity to SEQ ID NO: 1, %), cAMP assay, from EC50 [%]",Binder
1,0.6,HSQGTFTSDYSKYLDCDRAQDFVQWLMNT [glucagon derivative of SEQ ID NO: 2]
2,57.8,Y[Aib]QGTFTSDYSKYLDEKCAKEFVQWLMNT (lactam 16-20) [glucagon derivative of SEQ ID NO: 21]
3,0.3,W[Aib]QGTFTSDYSKCLDERRAKDFVQWLMNT (lactam 16-20) [glucagon derivative of SEQ ID NO: 30]
4,56.3,Y[Aib]QGTFTSDYSKYLDEKRAKEFVQWLMNTC (lactam 16-20) [glucagon derivative of SEQ ID NO: 12]
5,23.2,Y[Aib]QGTFTSDYSKYLDCVRAQDFVQWLMRT [glucagon derivative of SEQ ID NO: 17]
6,40.8,Y[Aib]QGTFVSDYSKYLDERRAKDFVQWLMNTC (lactam 16-20) [glucagon derivative of SEQ ID NO: 40]
7,1.6,Y[Aib]QGTFTSDCSKYLDSRRAQDFVQWLMNT [glucagon derivative of SEQ ID NO: 43]
8,45.2,Y[Aib]QGTFCSDYSKYLDERRAKDFVQWLMNT (lactam 16-20) [glucagon derivative of SEQ ID NO: 41]
9,167,Y[Aib]QGTFCSDYSKYLDERRAKEFVQWLMNT (lactam 16-20) [glucagon derivative of SEQ ID NO: 38]
10,0.7,SQGTFTSDYSKYLDECRAKEFVQWLMNT (lactam 15-19) [glucagon derivative of SEQ ID NO: 32]
11,< 0.1,Y[Aib]QGTFTSDYSKYLDSRRACDFRLWLMNT [glucagon derivative of SEQ ID NO: 18]
12,< 0.1,Y[Aib]QGTFTSDYSKYLDSCDAQDFVVWLINT [glucagon derivative of SEQ ID NO: 9]
13,1,W[Aib]QGTFTSDYSKYLDECRAKDFVQWLMNT (lactam 16-20) [glucagon derivative of SEQ ID NO: 26]
14,76.8,Y[Aib]QGTFTSDYSKYCDEKRAKEFVQWLMNT (lactam 16-20) [glucagon derivative of SEQ ID NO: 23]
15,226,Y[Aib]QGTFTSDYSKYLDERRAKEFVQWLMNTC (lactam 16-20) [glucagon derivative of SEQ ID NO: 37]
16,9.9,Y[Aib]QGTFTSDCSKYLDERRAKEFVQWLMNT (lactam 16-20) [glucagon derivative of SEQ ID NO: 36]
17,46.9,Y[Aib]QGTFTSDYSKYLDEKRAKCFVQWLMNT (lactam 16-20) [glucagon derivative of SEQ ID NO: 25]
18,4.2,Y[Aib]QGTFTSDYSKYLDCRRAQVFVQWLMRT [glucagon derivative of SEQ ID NO: 16]

row,"In vitro activity (relative activity to SEQ ID NO: 1, %), cAMP assay, from EC50 [%]",Binder
1,93.6,Y[Aib]QGTFVSDYSKYLDECRAKDFVQWLMNT (lactam 16-20) [glucagon derivative of SEQ ID NO: 27]
2,4.6,Y[Aib]QGTFTSDYSKYLDEKCAKEFVQWLMNT [glucagon derivative of SEQ ID NO: 11]
3,300,Y[Aib]QGTFTSDYSKYLDECRAKEFVQWLMNT (lactam 16-20) [glucagon derivative of SEQ ID NO: 20]
4,58,Y[Aib]QGTFTSDYSKCLDEKRAKEFVQWLMNT (lactam 16-20) [glucagon derivative of SEQ ID NO: 24]
5,6.1,HSQGTFTSDYSKYLDCERAQDFVQWLMNT [glucagon derivative of SEQ ID NO: 3]
6,3.7,Y[Aib]QGTFVSDCSKYLDERRAKDFVQWLMNT (lactam 16-20) [glucagon derivative of SEQ ID NO: 39]
7,148,Y[Aib]QGTFTSDYSKYLDEKRCKEFVQWLMNT (lactam 16-20) [glucagon derivative of SEQ ID NO: 22]
8,5.2,Y[Aib]QGTFTSDYSCYLDSRRAQDFVQWLMNT [glucagon derivative of SEQ ID NO: 13]
9,37.9,Y[Aib]QGTFCSDYSKYLDSRRAQDFVQWLMNT [glucagon derivative of SEQ ID NO: 42]
10,12.1,Y[Aib]QGTFTSDYSKYLCEKRAKEFVQWLMNT (lactam 16-20) [glucagon derivative of SEQ ID NO: 19]
11,108,YXQGTFTSDYSKYLDSRRAQDFVQWLMNT (X at position 2 = aminoisobutyric acid (Aib)) [glucagon derivative of SEQ ID NO: 33]
12,6.3,Y[Aib]QGTFTSDYSKYLDCKRAKEFVQWLMNT (lactam 17-21) [glucagon derivative of SEQ ID NO: 31]
13,< 0.1,W[Aib]QGTFVSDYSKYLDECRAKDFVQWLMNT (lactam 16-20) [glucagon derivative of SEQ ID NO: 28]
14,18.1,Y[Aib]QGTFTSDYSKYLDCKRAKEFVQWLMNT [glucagon derivative of SEQ ID NO: 14]
15,0.2,W[Aib]QGTFTSDYSKYCDERRAKEFVQWLMNT (lactam 16-20) [glucagon derivative of SEQ ID NO: 34]
16,61.3,Y[Aib]QGTFTSDYSKCLDERRAKDFVQWLMNT (lactam 16-20) [glucagon derivative of SEQ ID NO: 29]
17,< 0.1,Y[Aib]QGTFTSDYSKYLDSCDADDFVVWLINT [glucagon derivative of SEQ ID NO: 10]
18,17.7,Y[Aib]QGTFTSDYSKYCDERRAKEFVQWLMNT (lactam 16-20) [glucagon derivative of SEQ ID NO: 35]
